From paper PMC8084935 (Nature chemical biology, 2021)
Where a chain is given by its changes, count along the chain named. Names may count otherwise. *: point of attachment. COSH = C-terminal thiocarboxylate, S*

B1: MtTfuA-E67A (enzyme)
chain: MHGKKIIIFTGPSLSHTEASSILEAEYRPPVRRGDIQEAMKENPDIIGIIDGVFHQSPAVGHRAIIDAIRRGVKVVGGASMGALRASELSDLGMVGVGRIFRSYLEGEIESDDDVAVAFNPETLEPLSDSLVSIEFNLKRALRRGVIREDDFRKLMNTARNLFYPLRNYRRILHESGIPDDVKESLRSFLESEGRDLKREDALEVIRHIKRLAYTE
B2: MtTfuA-K205M (enzyme)
chain: B1 chain with A64E, K198M
B3: MtTfuA-E91Q (enzyme)
chain: B1 chain with A64E, E88Q
B4: MtTfuA-H65A (enzyme)
chain: B1 chain with H62A, A64E
B5: MtTfuA-R206A (enzyme)
chain: B1 chain with A64E, R199A
B6: MtTfuA-E91D (enzyme)
chain: B1 chain with A64E, E88D
B7: MtTfuA-S83A (enzyme)
chain: B1 chain with A64E, S80A
B8: MtTfuA-D115A (enzyme)
chain: B1 chain with A64E, D112A
B9: MtTfuA-L87A (enzyme)
chain: B1 chain with A64E, L84A
B10: MtTfuA-D203A (enzyme)
chain: B1 chain with A64E, D196A
B11: MtTfuA-R170A (enzyme)
chain: B1 chain with A64E, R167A
B12: MtTfuA-V118A (enzyme)
chain: B1 chain with A64E, V115A
B13: MtTfuA-D208N (enzyme)
chain: B1 chain with A64E, D201N
B14: MtTfuA-Y107A (enzyme)
chain: B1 chain with A64E, Y104A
B15: MtTfuA-R88A (enzyme)
chain: B1 chain with A64E, R85A
B16: MtTfuA-S16A (enzyme)
chain: B1 chain with S13A, A64E
B17: MtTfuA-D54A (enzyme)
chain: B1 chain with D51A, A64E
B18: MtTfuA-M84A (enzyme)
chain: B1 chain with A64E, M81A
B19: MtTfuA-F57A (enzyme)
chain: B1 chain with F54A, A64E
B20: MtThiS-COSH (thiocarboxylated ThiS from Methanothermobacter sp. CaT2) (natural protein)
chain: MVIGMKFTVITDDGKKILESGAPRRIKDVLGELEIPIETVVVKKNGEIVIEEEEIFDGDIIEVIRVIYGG-{COSH}

The binders below were run against MtYcaO (YcaO from Methanothermobacter sp. CaT2), MBP-His tag cut in the assay mixture (Methanothermobacter sp. CaT2) (assay: fluorescence polarisation).

EC50	Binder
4.9 µM	B1
1.1 µM	B2
> 30 µM	B3
> 30 µM	B4
3.1 µM	B5
2.1 µM	B6
4.1 µM	B7
> 30 µM	B8
> 30 µM	B9
2.9 µM	B10
> 30 µM	B11
> 30 µM	B12
3.9 µM	B13
> 30 µM	B14
> 30 µM	B15
5.4 µM	B16
> 30 µM	B17
3.2 µM	B18
3.8 µM	B19

Molecular target: the molecule itself
Experiment: native MS

Binder	stoichiometry N
B20	2
